Experimental data taken from patent US20030086932A1.

Key:
[1] = target: murine CD28 on murine T cells (murine) (UniProt P31041); assay: cell-based or functional assay
[2] = target: murine CTLA-4 on murine T cells (murine) (UniProt P09793); assay: cell-based or functional assay
UniProt P09793, sequence (P09793 36-223): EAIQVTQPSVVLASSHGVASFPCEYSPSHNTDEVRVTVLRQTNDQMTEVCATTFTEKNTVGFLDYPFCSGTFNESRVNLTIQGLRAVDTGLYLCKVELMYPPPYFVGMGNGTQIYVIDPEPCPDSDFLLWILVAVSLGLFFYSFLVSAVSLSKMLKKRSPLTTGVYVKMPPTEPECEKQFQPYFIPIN

UniProt P31041, sequence (P31041 20-218): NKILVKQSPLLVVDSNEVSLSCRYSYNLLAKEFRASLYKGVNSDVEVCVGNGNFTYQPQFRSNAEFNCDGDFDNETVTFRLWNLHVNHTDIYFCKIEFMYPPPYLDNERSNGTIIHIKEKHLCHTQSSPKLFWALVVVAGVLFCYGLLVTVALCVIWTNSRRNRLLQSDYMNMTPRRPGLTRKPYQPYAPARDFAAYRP

“memPVIscFv (surface-linked anti-murine CD28 scFv derived from hamster mAb PV-1, GPI anchored, expressed on transiently transfected 293 cells)” was tested. Which proliferation and cytokine production of pre-activated T cells (increase over mem2C11scFv alone) [1] did it give?
Its proliferation and cytokine production of pre-activated T cells (increase over mem2C11scFv alone) is 10 fold.

Which reduction in IL-2 production of pre-activated T cells, with combined mem2C11 and memPVIscFvs [2] does the source give for “mem4F10scFv (surface-linked anti-murine CTLA-4 scFv derived from hamster mAb UC10-4F10, anchored by a murine B7-1 derived motif, expressed on transiently transfected 293 cells) (from UniProt Q00609 247-302)” here?
Its reduction in IL-2 production of pre-activated T cells, with combined mem2C11 and memPVIscFvs is 69%.

And the reduction in IL-2 production of pre-activated T cells, with mem2C11 scFv alone [2]?
The reduction in IL-2 production of pre-activated T cells, with mem2C11 scFv alone was 67%.

And the reduction in intensity of the tyrosine-phosphorylated LAT band (photodensitometry, against control scFv) [2]?
The reduction in intensity of the tyrosine-phosphorylated LAT band (photodensitometry, against control scFv) was 35%.

And the reduction in intensity of the tyrosine-phosphorylated p23 TCR band (photodensitometry, against control scFv) [2]?
Its reduction in intensity of the tyrosine-phosphorylated p23 TCR band (photodensitometry, against control scFv) is 85%.

What about the reduction in proliferation of pre-activated T cells, with combined mem2C11 and memPVIscFvs [2] of the same substance?
Its reduction in proliferation of pre-activated T cells, with combined mem2C11 and memPVIscFvs is 66%.

And the reduction in proliferation of pre-activated T cells, with mem2C11 scFv alone [2]?
Its reduction in proliferation of pre-activated T cells, with mem2C11 scFv alone is 80%.
